Assay results reported in patent US20200024330A1.

How the values were obtained:
[1] = biological target: Env of all HIV-1 pseudoviruses of the cross-clade 162-pseudovirus panel (n = 162); experiment: cell-based or functional assay
[2] = biological target: Env of the clade A HIV-1 pseudoviruses of the cross-clade 162-pseudovirus panel (n = 26); experiment: cell-based or functional assay
[3] = biological target: Env of the clade AG HIV-1 pseudoviruses of the cross-clade 162-pseudovirus panel (n = 10); experiment: cell-based or functional assay
[4] = biological target: Env of the clade F HIV-1 pseudoviruses of the cross-clade 162-pseudovirus panel (n = 15); experiment: cell-based or functional assay
[5] = biological target: Env of the clade G HIV-1 pseudoviruses of the cross-clade 162-pseudovirus panel (n = 15); experiment: cell-based or functional assay
[6] = biological target: HIV-1 Env of isolate 92TH021 (HIV-1); experiment: cell-based or functional assay
[7] = biological target: HIV-1 Env of isolate JR-CSF (HIV-1) (UniProt P20871); experiment: cell-based or functional assay
[8] = biological target: HIV-1 Env of isolate MGRM-C-026 (HIV-1); experiment: cell-based or functional assay
[9] = biological target: HIV-1 JR-CSF Env D325A (HIV-1 isolate JR-CSF) (UniProt P20871); experiment: cell-based or functional assay
[10] = biological target: HIV-1 JR-CSF Env E321aA (HIV-1 isolate JR-CSF) (UniProt P20871); experiment: cell-based or functional assay
[11] = biological target: HIV-1 JR-CSF Env F317A (HIV-1 isolate JR-CSF) (UniProt P20871); experiment: cell-based or functional assay
[12] = biological target: HIV-1 JR-CSF Env I323A (HIV-1 isolate JR-CSF) (UniProt P20871); experiment: cell-based or functional assay
[13] = biological target: HIV-1 JR-CSF Env I420A (HIV-1 (isolate JR-CSF)) (UniProt P20871); experiment: cell-based or functional assay
[14] = biological target: HIV-1 JR-CSF Env I424A (HIV-1 (isolate JR-CSF)) (UniProt P20871); experiment: cell-based or functional assay
[15] = biological target: HIV-1 JR-CSF Env K343A (HIV-1 isolate JR-CSF) (UniProt P20871); experiment: cell-based or functional assay
[16] = biological target: HIV-1 JR-CSF Env K421A (HIV-1 (isolate JR-CSF)) (UniProt P20871); experiment: cell-based or functional assay
[17] = biological target: HIV-1 JR-CSF Env N241A (HIV-1 JR-CSF) (UniProt P20871); experiment: cell-based or functional assay
[18] = biological target: HIV-1 JR-CSF Env N262A (HIV-1 JR-CSF) (UniProt P20871); experiment: cell-based or functional assay
[19] = biological target: HIV-1 JR-CSF Env N276A (HIV-1 JR-CSF) (UniProt P20871); experiment: cell-based or functional assay
[20] = biological target: HIV-1 JR-CSF Env N295A (HIV-1 JR-CSF) (UniProt P20871); experiment: cell-based or functional assay
[21] = biological target: HIV-1 JR-CSF Env N301A (HIV-1 JR-CSF) (UniProt P20871); experiment: cell-based or functional assay
[22] = biological target: HIV-1 JR-CSF Env N302A (HIV-1 JR-CSF) (UniProt P20871); experiment: cell-based or functional assay
[23] = biological target: HIV-1 JR-CSF Env N332A (HIV-1 isolate JR-CSF) (UniProt P20871); experiment: cell-based or functional assay
[24] = biological target: HIV-1 JR-CSF Env N339A (HIV-1 isolate JR-CSF) (UniProt P20871); experiment: cell-based or functional assay
[25] = biological target: HIV-1 JR-CSF Env N386A (HIV-1 isolate JR-CSF) (UniProt P20871); experiment: cell-based or functional assay
[26] = biological target: HIV-1 JR-CSF Env N392Q (HIV-1 (isolate JR-CSF)) (UniProt P20871); experiment: cell-based or functional assay
[27] = biological target: HIV-1 JR-CSF Env P299A (HIV-1 JR-CSF) (UniProt P20871); experiment: cell-based or functional assay
[28] = biological target: HIV-1 JR-CSF Env P313A (HIV-1 JR-CSF) (UniProt P20871); experiment: cell-based or functional assay
[29] = biological target: HIV-1 JR-CSF Env R419A (HIV-1 (isolate JR-CSF)) (UniProt P20871); experiment: cell-based or functional assay
[30] = biological target: HIV-1 JR-CSF Env S199A (HIV-1 JR-CSF) (UniProt P20871); experiment: cell-based or functional assay
[31] = biological target: HIV-1 JR-CSF Env S306A (HIV-1 JR-CSF) (UniProt P20871); experiment: cell-based or functional assay
[32] = biological target: HIV-1 JR-CSF Env T297A (HIV-1 JR-CSF) (UniProt P20871); experiment: cell-based or functional assay
[33] = biological target: HIV-1 JR-CSF Env T303A (HIV-1 JR-CSF) (UniProt P20871); experiment: cell-based or functional assay
[34] = biological target: HIV-1 JR-CSF Env T320A (HIV-1 isolate JR-CSF) (UniProt P20871); experiment: cell-based or functional assay
[35] = biological target: HIV-1 JR-CSF Env T388A (HIV-1 (isolate JR-CSF)) (UniProt P20871); experiment: cell-based or functional assay
[36] = biological target: HIV-1 JR-CSF Env T394A (HIV-1 (isolate JR-CSF)) (UniProt P20871); experiment: cell-based or functional assay
[37] = biological target: HIV-1 JR-CSF Env T413A (HIV-1 (isolate JR-CSF)) (UniProt P20871); experiment: cell-based or functional assay
[38] = biological target: JR-FL gp120 ΔV1/ΔV2 (HIV-1 (isolate JR-FL)); experiment: ELISA on coated gp120; EC50 by nonlinear regression
[39] = biological target: WT JR-FL gp120 (HIV-1 (isolate JR-FL)); experiment: as above

B1: PGT-125 (antibody, V domains shown)
VH: QSQLQESGPRLVEASETLSLTCNVSGESTGACTYFWGWVRQAPGKGLEWIGSLSHCQSFWGSGWTFHNPSLKSRLTISLDTPKNQVFLKLTSLTAADTATYYCARFDGEVLVYNHWPKPAWVDLWGRGIPVTVSS
VL: QSALTQPPSASGSPGQSITISCNGTATNFVSWYQQFPDKAPKLIIFGVDKRPPGVPDRFSGSRSGTTASLTVSRLQTDDEAVYYCGSLVGNWDVIFGGGTTLTVL
B1 showed a Median IC50 against viruses neutralized with an IC50 <50 µg/ml [1] of 0.04 µg/mL, a Median IC50 against viruses neutralized with an IC50 <50 µg/ml [2] of 0.01 µg/mL and a Median IC50 against viruses neutralized with an IC50 <50 µg/ml [3] of 0.01 µg/mL. For the same binder, the Median IC50 against viruses neutralized with an IC50 <50 µg/ml [4] was 0.04 µg/mL, the Median IC50 against viruses neutralized with an IC50 <50 µg/ml [5] was 0.02 µg/mL and the IC50 (µg/mL), pseudovirus neutralization [6] was 0.006 µg/mL. It also gave a Polyclonal Transfectant Neutralization Index (well 5123 A6) [6] of 50.6, a Primary Neutralization Index (B cell culture well 5123 A6) [6] of 133 and a Polyclonal Transfectant Neutralization Index (well 5123 A6) [7] of 119. It also gave a Primary Neutralization Index (B cell culture well 5123 A6) [7] of 1730, a Polyclonal Transfectant Neutralization Index (well 5123 A6) [8] of 88.3 and a Primary Neutralization Index (B cell culture well 5123 A6) [8] of 512. It also gave a Fold IC50 increase relative to wild-type [9] of 0.4 fold, a Fold IC50 increase relative to wild-type [10] of 1 fold and a Fold IC50 increase relative to wild-type [11] of 1.8 fold. The Fold IC50 increase relative to wild-type [12] was 0.9 fold, the Fold IC50 increase relative to wild-type [13] was 1.1 fold and the Fold IC50 increase relative to wild-type [14] was 0.7 fold. The Fold IC50 increase relative to wild-type [15] was 0.7 fold, the Fold IC50 increase relative to wild-type [16] was 1.2 fold and the Fold IC50 increase relative to wild-type [17] was 0.5 fold. It also gave a Fold IC50 increase relative to wild-type [18] of 0.9 fold, a Fold IC50 increase relative to wild-type [19] of 0.9 fold and a Fold IC50 increase relative to wild-type [20] of 0.8 fold. For the same binder, the Fold IC50 increase relative to wild-type [21] was 213 fold, the Fold IC50 increase relative to wild-type [22] was 0.7 fold and the Fold IC50 increase relative to wild-type [23] was 2 fold. The Fold IC50 increase relative to wild-type [24] was 0.9 fold, the Fold IC50 increase relative to wild-type [25] was 0.8 fold and the Fold IC50 increase relative to wild-type [26] was 1.2 fold. It also gave a Fold IC50 increase relative to wild-type [27] of 0.2 fold, a Fold IC50 increase relative to wild-type [28] of 0.3 fold and a Fold IC50 increase relative to wild-type [29] of 1 fold. The Fold IC50 increase relative to wild-type [30] was 0.7 fold, the Fold IC50 increase relative to wild-type [31] was 1.2 fold and the Fold IC50 increase relative to wild-type [32] was 0.9 fold. The Fold IC50 increase relative to wild-type [33] was over 250 fold, the Fold IC50 increase relative to wild-type [34] was 0.8 fold and the Fold IC50 increase relative to wild-type [35] was 0.6 fold. For the same binder, the Fold IC50 increase relative to wild-type [36] was 0.6 fold, the Fold IC50 increase relative to wild-type [37] was 0.5 fold and the EC50 [38] was 0.6 µg/mL. It also gave an EC50 [39] of 0.2 µg/mL.
